The target of this assay is T1, sTF (soluble human tissue factor 1-219) (human).
T1 chain: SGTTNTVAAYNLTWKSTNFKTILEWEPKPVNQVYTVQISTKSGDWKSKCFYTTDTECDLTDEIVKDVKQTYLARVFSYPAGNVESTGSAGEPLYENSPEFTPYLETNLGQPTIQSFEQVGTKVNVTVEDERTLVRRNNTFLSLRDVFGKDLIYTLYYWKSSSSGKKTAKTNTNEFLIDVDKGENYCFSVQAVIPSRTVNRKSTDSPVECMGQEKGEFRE
The assay can be described thus: SPR. A general note: Surface plasmon resonance follows binding to a sensor surface in real time, without labels.

In patent US7435413 (dated 2008) one finds Kd data, which are given here for one molecule.

B1: 5G6 (antibody, V domains shown)
VH: EVLLQQSGPELVKPGASVKIPCKASGYTFTEYNMDWVKQSHGKSLEWIGDINPNNGNTIYNQKFKGKATLTVDKSSTTAYLELRSLTSEDTAVYFCARDHDYYFDFWGQGTTLTVSS
VL: DIQMTQTPASQSASLGESVTITCLASQTIDTWLAWYQQKPGKSPQLLIYAATSLADGVPSRFSGSGSGTKFSFKISSLQAEDFVSYYCQQPYSSPYTFGGGTKLELKR
In the case of B1, the Kd (in general, the constant that tells how readily two partners part at equilibrium) is 1.7 nM.
